From patent US20170306044A1 (ENGMAB, published 2017)
Several values for one entry are separate records, joined by “and”; a condition that tells them apart may be missing. Equal values may be shown once.

Key:
[1] = molecular target: T1, human ROR1 (tyrosine-protein kinase transmembrane receptor ROR1) (human, UniProt Q01973 30-937); assay: flow cytometry on PA-1 ovarian cancer cells (MFI against antibody concentration)
T1 construct: whole, on cells; the assays used the protein on cells
Description: (§1) a) The level of expression of ROR1 is measured on human ovarian cancer cell lines by flow cytometry including PA-1, MCAS, EFO-21, COLO-704, SW-626, KURAMOCHI, OVSAHO, SNU-119, COV362, OVCAR-4, COV318, TYK-nu, ON/KATE, CAOV-4, OAW28, CAOV-3, 59M, ONCO-DG-1, OVCAR-3. OVCAR-5, ES-2, COV-504, OV-90, RMUG-S, COV-644, SNU-840, OVISE, OAW42, OVTOKO, OVMANA, COV-434, OV56, SK-OV-3N2780, IGROV-1, and/or TOV-21G. Briefly, cells are harvested, washed, counted for viability, resuspended at 50,000 cells/well of a 96-well round bottom plate and incubated with Alexa488-labeled anti human ROR1 antibody for 30 min at 4° C. All ROR1 and isotype control antibodies are titrated and analyzed in final concentration range between 0.01-100 nM. […] At the end of incubation time, cells are centrifuged (5 min. at 350 x g), washed twice with FACS buffer, resuspended in 100 u.l FACS buffer and analyzed on a CantoII device running FACS Diva software. Expression of ROR1 is then quantitified as the median fluorescence intensity (MFI) and graphs showing the MFI in function of ROR1 antibody concentrations are plotted. EC50 values are then measured using Prism software (GraphPad). […] The calculated EC50s for binding of ROR1 Mab1 to SK-OV-3 are extrapolated values and may be underestimated. […]

[2] = molecular target: T1, human ROR1 (tyrosine-protein kinase …); assay: flow cytometry, maximum MFI at 10 µg/mL antibody, PA-1 against SK-OV-3 cells
Description: as §1

[3] = molecular target: T1, human ROR1 (tyrosine-protein kinase …); assay: flow cytometry on SK-OV-3 ovarian cancer cells (MFI against antibody concentration); extrapolated value
Description: as §1

T1 sequence (Q01973 30-937): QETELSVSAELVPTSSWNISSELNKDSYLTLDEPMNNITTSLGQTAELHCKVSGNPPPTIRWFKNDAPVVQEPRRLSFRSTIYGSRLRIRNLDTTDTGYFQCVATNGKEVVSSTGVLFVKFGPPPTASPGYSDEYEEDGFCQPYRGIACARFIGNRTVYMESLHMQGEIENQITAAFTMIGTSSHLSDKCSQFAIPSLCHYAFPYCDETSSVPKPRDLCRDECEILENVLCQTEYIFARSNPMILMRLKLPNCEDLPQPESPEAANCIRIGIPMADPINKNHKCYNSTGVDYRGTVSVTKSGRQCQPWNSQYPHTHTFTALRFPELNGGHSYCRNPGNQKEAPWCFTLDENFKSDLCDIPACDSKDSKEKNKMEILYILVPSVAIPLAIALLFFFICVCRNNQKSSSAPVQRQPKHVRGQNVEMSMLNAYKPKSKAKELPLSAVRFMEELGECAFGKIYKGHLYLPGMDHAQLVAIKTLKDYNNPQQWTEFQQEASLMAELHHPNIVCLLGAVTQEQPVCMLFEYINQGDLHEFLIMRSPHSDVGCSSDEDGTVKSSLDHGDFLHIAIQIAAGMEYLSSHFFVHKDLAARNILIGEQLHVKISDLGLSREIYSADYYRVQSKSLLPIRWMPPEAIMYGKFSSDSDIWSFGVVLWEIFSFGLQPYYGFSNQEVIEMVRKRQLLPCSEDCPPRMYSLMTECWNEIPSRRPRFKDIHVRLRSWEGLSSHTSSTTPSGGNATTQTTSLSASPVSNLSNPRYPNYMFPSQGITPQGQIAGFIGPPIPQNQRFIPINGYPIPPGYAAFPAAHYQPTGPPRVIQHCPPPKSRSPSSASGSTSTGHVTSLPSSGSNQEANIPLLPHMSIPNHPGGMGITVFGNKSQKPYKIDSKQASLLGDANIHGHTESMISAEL

- EC50 [1]: 0.87 nM and 0.13 µg/mL
- maximum MFI on PA-1 cells relative to SK-OV-3 cells [2]: ~3 fold
- EC50 [3]: ~4.62 nM and ~0.69 µg/mL
B1: ROR1 Mab1 IgG (anti-ROR1 antibody MAB1) (antibody, V domains shown)
VH: QEQLVESGGRLVTPGGSLTLSCKASGFDFSAYYMSWVRQAPGKGLEWIATIYPSSGKTYYATWVNGRFTISSDNAQNTVDLQMNSLTAADRATYFCARDSYADDGALFNIWGPGTLVTISS
VL: ELVLTQSPSVSAALGSPAKITCTLSSAHKTDTIDWYQQLQGEAPRYLMQVQSDGSYTKRPGVPDRFSGSSSGADRYLIIPSVQADDEADYYCGADYIGGYVFGGGTQLTVTG
notes: also called ROR1 IgG; Mab1 anti-ROR1 antibodies
